In article PMC10045489 (2023):

B1: Nb20 nanobody (VHH)
VHH: QVQLVESGGGLVQAGGSLRLSCAVSGAGAHRVGWFRRAPGKEREFVAAIGASGGMTNYLDSVKGRFTISRDNAKNTIYLQMNSLKPQDTAVYYCAARDIETAEYIYWGQGTQVTVSS
B2: ab8 nanobody (VHH)
VHH: QVQLVESGGGLVQPGGSLRLSCAASGFTFDDYAMSWVRQAPGKGLEWIGRMYNNGRTSYNPSLKSLVTISRDNSKNTLYLQMNSLRAEDTATYYCARDNLGYRPSENLYGMDVWGQGTQVTVSS
B3: H11-H4 nanobody (VHH)
VHH: QVQLVESGGGLMQAGGSLRLSCAVSGRTFSTAAMGWFRQAPGKEREFVAAIRWSGGSAYYADSVKGRFTISRDKAKNTVYLQMNSLKYEDTAVYYCAQTHYVSYLLSDYATWPYDYWGQGTQVTVSS

Each binder was assayed against full-length His-tagged SARS-CoV-2 spike protein (wild-type) (SARS-CoV-2, UniProt P0DTC2) (assay: BLI).
B1 showed a Kd of roughly 0.72 nM. B2 was tested, and the Kd was roughly 120 nM. B3 was tested, and the Kd was roughly 61 nM.
